Laboratory results as given in PMC4894940, “The function of the two-pore channel TPC1 depends on dimerization of its carboxy-terminal helix” (Cellular and Molecular Life Sciences: CMLS, 2016).
Residue numbers refer to the chain shown, from its start.

B1: C-terminus of the TPC1-3LP-mutant: soluble C-terminus of TPC1-3LP, N-terminally 6xMyc- or FLAG-tagged, C-terminal GFP fusion (protein)
chain: EAFFTELDLEEEEKCQGQDSQEKRNRRRSAGSKSRSQRVDTPPHHMPGDELSKPECSTSDT-eGFP
modifications: not fully specified (N-terminus); also: N-terminally 6xMyc- or FLAG-tagged
notes: soluble C-terminus of TPC1-3LP, N-terminally 6xMyc- or FLAG-tagged, C-terminal GFP fusion
B2: TPC1ΔC29: truncated TPC1 containing residues 1–704 (protein, UniProt Q94KI8 1-704, looked up, fragment)
chain: MEDPLIGRDSLGGGGTDRVRRSEAITHGTPFQKAAALVDLAEDGIGLPVEILDQSSFGESARYYFIFTRLDLIWSLNYFALLFLNFFEQPLWCEKNPKPSCKDRDYYYLGELPYLTNAESIIYEVITLAILLVHTFFPISYEGSRIFWTSRLNLVKVACVVILFVDVLVDFLYLSPLAFDFLPFRIAPYVRVIIFILSIRELRDTLVLLSGMLGTYLNILALWMLFLLFASWIAFVMFEDTQQGLTVFTSYGATLYQMFILFTTSNNPDVWIPAYKSSRWSSVFFVLYVLIGVYFVTNLILAVVYDSFKEQLAKQVSGMDQMKRRMLEKAFGLIDSDKNGEIDKNQCIKLFEQLTNYRTLPKISKEEFGLIFDELDDTRDFKINKDEFADLCQAIALRFQKEEVPSLFEHFPQIYHSALSQQLRAFVRSPNFGYAISFILIINFIAVVVETTLDIEESSAQKPWQVAEFVFGWIYVLEMALKIYTYGFENYWREGANRFDFLVTWVIVIGETATFITPDENTFFSNGEWIRYLLLARMLRLIRLLMNVQRYRAFIATFITLIPSLMPYLGTIFCVLCIYCSIGVQVFGGLVNAGNKKLFETELAEDDYLLFNFNDYPNGMVTLFNLLVMGNWQVWMESYKDLTGTWWSITYFVSFYVITILLLLNLVVAFVLEAFFTELDLEEEEKCQGQDSQEKRNRRRSAGS
modifications: C-terminal GFP
B3: TPC1-3LP: substitution of three leucines (L714, 715, and 719) by prolines (protein, UniProt Q94KI8 1-733, looked up, variant L714P L715P L719P)
Two pore calcium channel …: MEDPLIGRDSLGGGGTDRVRRSEAITHGTPFQKAAALVDLAEDGIGLPVEILDQSSFGESARYYFIFTRLDLIWSLNYFALLFLNFFEQPLWCEKNPKPSCKDRDYYYLGELPYLTNAESIIYEVITLAILLVHTFFPISYEGSRIFWTSRLNLVKVACVVILFVDVLVDFLYLSPLAFDFLPFRIAPYVRVIIFILSIRELRDTLVLLSGMLGTYLNILALWMLFLLFASWIAFVMFEDTQQGLTVFTSYGATLYQMFILFTTSNNPDVWIPAYKSSRWSSVFFVLYVLIGVYFVTNLILAVVYDSFKEQLAKQVSGMDQMKRRMLEKAFGLIDSDKNGEIDKNQCIKLFEQLTNYRTLPKISKEEFGLIFDELDDTRDFKINKDEFADLCQAIALRFQKEEVPSLFEHFPQIYHSALSQQLRAFVRSPNFGYAISFILIINFIAVVVETTLDIEESSAQKPWQVAEFVFGWIYVLEMALKIYTYGFENYWREGANRFDFLVTWVIVIGETATFITPDENTFFSNGEWIRYLLLARMLRLIRLLMNVQRYRAFIATFITLIPSLMPYLGTIFCVLCIYCSIGVQVFGGLVNAGNKKLFETELAEDDYLLFNFNDYPNGMVTLFNLLVMGNWQVWMESYKDLTGTWWSITYFVSFYVITILLLLNLVVAFVLEAFFTELDLEEEEKCQGQDSQEKRNRRRSAGSKSRSQRVDTPPHHMPGDELSKPECSTSDT
modifications: C-terminal GFP
notes: substitution of three leucines (L714, 715, and 719) by prolines
B4: TPC1: wild type Arabidopsis two-pore channel TPC1 expressed as GFP-fusion in tpc1-2 background (protein)
chain: B3 Two pore calcium channel … with P714L, P715L, P719L
modifications: left off: Venus C-terminal half (VC, one copy) or Venus N-terminal half (VN, the other copy), C-terminal, kept
notes: wild type Arabidopsis two-pore channel TPC1 expressed as GFP-fusion in tpc1-2 background
B5: N-terminally tagged TPC1: TPC1 subunits N-terminally tagged with Venus halves (BiFC) or GFP (localization) (protein)
chain: B3 Two pore calcium channel … with P714L, P715L, P719L
modifications: left off: Venus C-terminal half (VC, one copy) or Venus N-terminal half (VN, the other copy), N-terminal, kept
B6: TPC1 C-terminus: soluble C-terminus (residues 673–732) of wild type TPC1, N-terminally 6xMyc- or FLAG-tagged, C-terminal GFP fusion (protein)
chain: EAFFTELDLEEEEKCQGQDSQEKRNRRRSAGSKSRSQRVDTLLHHMLGDELSKPECSTSDT-eGFP
modifications: not fully specified (N-terminus); also: N-terminal 6xMyc or FLAG tag
notes: soluble C-terminus (residues 673–732) of wild type TPC1, N-terminally 6xMyc- or FLAG-tagged, C-terminal GFP fusion

Legend:
[1] = tested on: Myc-tagged C-terminus of TPC1; test: Co-immunoprecipitation of TPC1 C-termini in HEK293T cells; format: binding, Arabidopsis thaliana; conditions: IP anti-Myc, WB anti-Myc / anti-Flag, 3 independent experiments
From the text: For the Co-IP tests the C-terminally tagged GFP-fusions were used as templates to amplify the soluble C-terminus (amino acids 673–733) of TPC1 or TPC1-3LP fused to GFP with PCR. The constructs were subcloned into the pENTR-D-TOPO vector and afterwards brought into the expression vectors with EcoRI and XhoI (New England Biolabs), so that they were N-terminally tagged either with 6x Myc (pCS2+MT) or with the FLAG-tag (pCS2 + Flag).
HEK293T cells were propagated in DMEM GIBCO Glutamax (Life Technologies) supplemented with 10 % fetal calf serum. Cells were seeded in 6–well plates (20–30 % confluency) and transfected the next day using 10 µl Roti-Fect (Carl Roth) per 2 µg total DNA (1 µg DNA per plasmid). Two days after transfection cells were washed with 2 ml PBS buffer (Life Technologies) and harvested for immunoprecipitation in 150 µl cold lysis buffer (10 mM HEPES, 150 mM NaCl, 1 % Nonidet P40, 5 % glycerol, pH 7,4/KOH) supplemented with protease inhibitors and phosphatase inhibitors (Complete mini EDTA free and PhosStop, Roche). Cells were disrupted mechanically with a syringe (cannula diameter 0.55 mm). The lysate was cleared by centrifugation at 13.500 rpm and 4 °C for 10 min. Total protein concentrations were measured with a bicinchoninic acid protein assay (Applichem), typically the total protein amount was 500–600 µg. Loading controls of 50 µg of the lysate were taken accordingly and filled up to 20 µl with lysis buffer before adding 5 µl of 5x sample buffer (250 mM Tris, 5 % SDS, 25 % glycerol, 0.25 % bromophenol blue, 250 mM β–mercaptoethanol, pH 6.8/HCl) and boiling. For immunoprecipitation, 3 µg of mouse anti-c-Myc Epitope antibody 9E10 (sc-40, Santa Cruz) was used per sample. Samples were incubated with the antibody for 45 min at 4 °C with a rotator, then 10 µl of protein G Dynabeads (Life Technologies) equilibrated in the lysis buffer was added to each sample and incubation continued for another 45 min. Samples were washed three times with cold lysis buffer before eluting three times with 20 µl of 100 mM glycine (pH 2.5/HCl). […]

[2] = tested on: slow vacuolar (SV) currents in tpc1-2 vacuoles; test: Whole-vacuolar patch-clamp of TPC1 variants (SV currents); format: cell-based, Arabidopsis thaliana; conditions: whole-vacuolar
Experimental: (§1) Expression of GFP-fusion proteins for electrophysiological measurements or confocal microscopy was performed in A. thaliana tpc1-2 mesophyll protoplasts as described. Briefly, leaves were enzymatically digested to release mesophyll protoplasts, which were then transformed by the polyethylene glycol method. Protoplasts were used for electrophysiological measurements and subcellular localization of GFP fluorescence 2–4 days after transformation.
(§2) Patch-clamp experiments were performed on transformed vacuoles harboring two-pore channels as identified by GFP fluorescence. The pipette (luminal) solution consisted of 100 mM K-gluconate, 2 mM MgCl2, 10 mM EGTA, 10 mM MES, pH 5.5/Tris. The bath (cytosolic) solution contained 50 mM K-gluconate, 1 mM CaCl2, 1 mM MgCl2, 2 mM DTT, 10 mM HEPES, pH 7.5/Tris. Solutions were adjusted to 430 mosmol/kg by adding D-sorbitol. For analysis of the TPC1-S706 mutants two further calcium concentrations of the bath solution were used in which 1 mM CaCl2 was substituted by 0.2 mM or 0.05 mM CaCl2, respectively. Competition assays using the CTH peptide were performed on endogenous TPC1 channels in vacuoles isolated from Col-0 plants. Peptides were dissolved at 10 mM in bath solution supplemented with 1 % DMSO and 0.1 % pluronic, and diluted >600-fold for application in patch-clamp recordings. Currents were recorded either in the whole-vacuolar or cytosolic side-out configuration of the patch-clamp technique, using an EPC10 amplifier and the program PULSE (HEKA electronics, Lambrecht, Germany). Recordings and data analysis were performed as described earlier. Relative open probabilities (P o) were determined from tail currents at −53 mV, following pulses to the different test voltages. Tail currents were normalized to the maximum values at 1 mM Ca^2+, plotted as a function of the applied test voltage, and fitted according to the Boltzmann equation: PO=A/1+exp^zF/RT·(Vo-V) where V o and z are parameters for the voltage at half-maximum open probability and the apparent number of gating charges, respectively, and A describes the maximum conductance that is reached under the experimental conditions.

tonoplast = test: Confocal localization of GFP-fusions in tpc1-2 mesophyll protoplasts; format: cell-based, Arabidopsis thaliana; conditions: GFP-fusion in tpc1-2 mesophyll protoplasts
Experimental: as §1
Fluorescence signals were detected and documented with a TCS SP2 confocal laser scanning microscope and the Leica Confocal Software (Leica Microsystems). A 488 nm Argon laser was used for excitation of GFP and of the auto-fluorescence of chlorophyll. GFP-signals were detected from 500 to 556 nm and chlorophyll signals from 675 to 767 nm. Venus was excited with a […] and detected in the range from 520 to 556 nm, the corresponding chlorophyll signals were detected from 637 to 736 nm. Images were processed with Photoshop (Adobe Systems).

[3] = tested on: excised cytosolic side-out vacuolar membrane patches of tpc1-2 cells; test: Excised cytosolic side-out patch recordings of TPC1 variants; format: cell-based, Arabidopsis thaliana
Experimental: as §1, §2

[4] = tested on: TPC1 subunits co-expressed in Nicotiana benthamiana leaves; test: Bimolecular fluorescence complementation (Split Venus BiFC); format: cell-based; conditions: N. benthamiana leaves, plate reader and confocal
Experimental: For BiFC analyses the gateway entry vector pENTR-D-TOPO and the destination vectors pDEST–^GWVYCE and pDEST–^GWVYNE were used for C-terminal fusion of the Venus C- and N-terminus, respectively, and pDEST–VYCE(R)^GW and pDEST–VYNE(R)^GW for N-terminal tagging.
BiFC studies were performed as described using a Split Venus system. The Agrobacterium strain C58C1 [42] harboring the plasmid of interest and the helper strain p19 [43] were grown in LB medium supplemented with 100 µg/ml Kanamycin at 29 °C overnight. The cultures were brought to an optical density (OD600) of 1.0 in infiltration buffer (10 mM MES, 10 mM MgCl2, 100 µM acetosyringone, pH 5.7/KOH) and the combinations to test for co-expression mixed at equal amounts. The p19 helper strain (OD600 = 1.0) was added to these mixtures in a 1:1 ratio. Suspensions were incubated for 2 h before infiltration into the abaxial side of 6-week-old N. benthamiana leaves. Each leaf was infiltrated with several plasmid combinations and a positive control (TPC1/pDEST-^GWVYCE and TPC1/pDEST-^GWVYNE) as well as a negative control (p19 alone) at separated areas to monitor comparability of the transient expression and to define background fluorescence.
For fluorescence quantification leaf disks (Ø 6 mm) were cut out of the infiltrated areas with a cork borer 2.5 day after infiltration. Leaf disks were placed upside-down in a black 96-well plate prefilled with 70 µl H2O per well to minimize dehydration effects. Fluorescence was measured with a plate-reader (Infinite F200, Tecan) with an excitation wavelength of 485 ± 20 nm and an emission wavelength of 525 ± 25 nm.

Molecule	Co-IP of C-termini [1]	subcellular localization of GFP-fusion (tonoplast)	BiFC signal [4]	further results
B1	reduced ability to dimerize	–	–	Co-IP of C-termini ([1]; listed as 3LP-Flag-Ct): visibly weaker interaction of the two C-termini
B2	–	localized in the tonoplast	–	whole-vacuolar SV currents ([2]; GFP-fusion in tpc1-2 vacuoles, 1 mM CaCl2 bath, pH 7.5): stayed silent
B3	–	–	reduced compared to the wild type	residual whole-vacuolar current amplitude (% of wild type amplitude) ([2]; 1 mM CaCl2, relative to wild type, results section): about 7%; macroscopic currents in excised patches ([3]; excised patches, tpc1-2 cells): no macroscopic currents were resolved
B4	–	–	BiFC signals from wild type channels could be observed	current remaining following reduction of Ca2+ from 1 mM to 200 µM ([3]; at 107 mV, Ca2+ reduced from 1 mM to 200 µM (n = 3–7)): 53 ± 10%
B5	–	tonoplast localization	did not result in Venus-fluorescence	–
B6	bound to itself	–	–	–
